This note sets out measurements from US20250236667A1, “ANTIBODIES TO MUTANT CALRETICULIN AND USES THEREOF” (CENTRAL ADELAIDE LOCAL HEALTH NETWORK INC, priority 2021, published 2025).

The subject of data set [1] is TF-1 TpoR CALR^del61 cells. Briefly: Cell proliferation, trypan blue exclusion. The class given is cell-based, human. Conditions: over 5 days at 2, 10 and 20 μg/mL. The method, then: […] Cells were seeded in triplicate and each well was counted in triplicate every 24 hours for 5 days using trypan blue exclusion.
Data set [2] concerns TF-1 TpoR CALR^del61 cells in NSG mice. Description: Bone marrow engraftment xenograft model. Type of data set: in vivo. The method, then:
All procedures were approved by the South Australian Health and Medical Research Animal Ethics Committee (Protocol SAM21-018). Bone marrow engraftment model: 4-6 week old NSG mice were x-ray irradiated with 150 cGy and 5×10^5 cells (TF-1-TpoR CALR^del61) or 5×10^4 cells (100 nM ruxolitinib resistant TF-1 TpoR CALR^del61) were intravenously injected into mice. […] Tail vein bleeds were taken at 3 weeks and analysed via flow cytometry to determine human leukaemia content in the peripheral blood. Leukemic cells were PI-, mCD45.1, hCD33+, zsGreen+. Mice were monitored daily and euthanized once clinical symptoms were observed. At the time of euthanasia, cardiac puncture was performed to obtain both peripheral blood and serum for analysis. Additionally, bone marrow from both femurs, spine and spleens were analysed for leukemic content as detailed above. Chloroma model: 4-6 week old NSG mice were anaesthetised by isoflurane inhalation and shaved on the left back/flank and 1×10^7 cells were injected into the mice. Cells were pre-treated with 20 μg/mL IgG or 4D7 for 1 hour prior to injection. […] Tumour progression was assessed through caliper measurements every 2 days. Mice were euthanised once tumours began to impede movement, show signs of ulceration or if any measurement of the tumour exceeded 30 mm (length, width or depth).

Data set [3] can be described thus: Pharmacokinetic measurement of serum level of 4D7. Particulars: 12.5 mg/kg intraperitoneal injection; 48 hours post injection. The class given is in vivo, mice. The method, then:
A. Illustration showing bone marrow NSG engraftment model with TPO-independent TF-1 TpoR CALR^del61 cells treated with 4D7 or IgG control twice weekly, starting 7 days after engraftment via intraperitoneal injection and final measurements taken from euthanized mice. B. Pharmacokinetic measurements of serum level of 4D7 in mice after intraperitoneal injection at 1, 24, 48, 72 and 110 hours since administration. C. Percentage of human CD33+myeloid cells measured in peripheral blood at 3 weeks post-tail vein engraftment (n=5 mice per treatment). D. Kaplan-Meier survival curve of bone marrow engraftment model showing improved survival of mice treated with 4D7 compared with IgG control commencing I week after tail vein injection (n=5 mice per treatment). […]
All procedures were approved by the South Australian Health and Medical Research Animal Ethics Committee (Protocol SAM21-018). […] Tail vein bleeds were taken at 3 weeks and analysed via flow cytometry to determine human leukaemia content in the peripheral blood. […] Mice were monitored daily and euthanized once clinical symptoms were observed. […] Additionally, bone marrow from both femurs, spine and spleens were analysed for leukemic content as detailed above. […] Tumour progression was assessed through caliper measurements every 2 days. […]

B1: 4D7: rat monoclonal IgG2a antibody against the mutant CALR neoepitope; VH SEQ ID NO: 5, VL SEQ ID NO: 7 (antibody, listed as Rattus rattus, V domains shown)
VH: QVQLQQSGAELAKPGSSVKISCKASGYTFTNYDMSWIKQRPGQALEWIGAINPGNGVTDYNEKFRGKATLTVDKSSSTAFMQLSSLTPEDTAVYHCAREYRDNYGYFDYWGQGVMVTVSS
VL: DIVLTQTPVSLSVTLGDQASISCRSSQSLEYSDGYTYLDWFLQKPGQSPQLLIYEVSSRFSGVPDRFIGRGSGTDFTLKISRVEPEDLGVYYCFQATHDPFTFGSGTKLEIK
As to B1, the TPO-independent cell growth entry in data set [1] was “blockade of TPO-independent cell growth”. Moreover, the “peripheral blood engraftment of human CD33+ myeloid cells” value in data set [2] (3 weeks, 12.5 mg/kg twice weekly i.p. starting day 7, P=0.01) is on record as 0.04%. In addition, in data set [2] (4D7 vs IgG, 12.5 mg/kg twice weekly, P=0.003), the “survival, log-rank hazard ratio” value worked out at 0.24. Moreover, the serum concentration entry in data set [3] was “more than 100 μg/mL”.
